Assay results published in article PMC7846277.

Target: microtubules grown from purified bovine brain tubulin (bovine) (UniProt Q6B856)
Experiment: laser trap (optical trap) rupture force assay; kinetochore particles on anti-His5 beads (7.5 nM Dsn1-His-Flag), placed at the ends of microtubules growing from coverslip-anchored seeds; BRB80 growth buffer with 1 mM GTP, 1.5 mg/mL tubulin; force ramp 0.25 pN/s; 23°C

UniProt Q6B856, sequence (Q6B856 whole entry, looked up): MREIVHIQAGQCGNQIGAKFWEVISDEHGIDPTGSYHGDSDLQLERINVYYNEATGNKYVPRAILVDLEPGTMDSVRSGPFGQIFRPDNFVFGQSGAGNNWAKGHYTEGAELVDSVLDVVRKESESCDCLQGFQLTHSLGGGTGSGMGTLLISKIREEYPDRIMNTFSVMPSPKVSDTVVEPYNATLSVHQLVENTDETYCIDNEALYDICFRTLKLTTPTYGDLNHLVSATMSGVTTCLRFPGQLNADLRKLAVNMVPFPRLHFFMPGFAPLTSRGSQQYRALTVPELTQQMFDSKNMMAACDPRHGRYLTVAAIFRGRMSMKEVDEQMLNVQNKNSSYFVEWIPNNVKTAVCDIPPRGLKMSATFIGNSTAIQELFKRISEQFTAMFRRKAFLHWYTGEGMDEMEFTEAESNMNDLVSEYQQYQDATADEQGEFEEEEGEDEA

Substance	mean rupture force [pN]
Wild-type kinetochore particles from mitotic metaphase cells (from UniProt P40568 1-576) (complex)	9
Wild-type meiotic metaphase I kinetochore particles (from UniProt P40568 1-576) (complex)	12
